In patent US9453050B2, “Compositions for treating glioma” (GLIA SP Z.O.O., priority 2011, dated 2016):

Key:
C6 glioma cells = experiment: Matrigel matrix invasion of C6 glioma cells in presence of microglia; assay type: cell-based, rat; conditions: laser scanning cytometry; FIG. 7E
Experimental: The invasion assay was performed as described (Wesolowska et al. 2008, Kwiatkowska et al. 2011). Briefly, 24-well tissue culture inserts (12 μm pore size Transwell, Corning, N.Y., USA) were coated with the Growth Factor Reduced Matrigel™ Matrix (BD Biosciences, San Diego. Calif., USA). 100 μl of the Matrigel™ Matrix (1 mg/ml) diluted in distilled water, was dried under sterile conditions (37° C.) for 5-6 hours and reconstituted for 30 minutes in 200 μl of culture medium. C6 glioma cells (1.5×10^4/insert) were seeded on Matrigel-coated membrane in the serum-reduced medium (2% FBS) and exposed to microglia or left untreated. After 48 h cells were fixed and cell nuclei stained with DAPI. The membranes from Transwell® inserts were cut out and the total number of cells that migrated through the Matrigel was determined using Laser Scanning Cytometry (LSC, CompuCyte). All experiments were performed in triplicate. The data from three independent experiments were pooled and expressed as the average number of cells±S.D.
(§1) To investigate the role of identified proteins in GCM-induced activation of microglia cells, stable C6 glioma cell lines expressing shRNAs specific to osteopontin (shSPP1), or a control, negative shRNA (shNeg) were generated. Silencing efficiency was approximately 98.5% (FIGS. 7A and C). […]

[1] = test system: osteopontin (spp1) mRNA in C6 glioma cells; experiment: qPCR of osteopontin silencing in stable C6 glioma clones; assay type: cell-based, rat; conditions: stable C6 glioma cell lines; FIGS. 7A and C
Experimental: Forward and reverse oligonucleotides were incubated in 0.1 M NaCl for 3 min at 94° C., followed by slow cooling to 37° C. for 1 h. The annealed DNA was ligated with pSilencer 2.0-U6 (Ambion, Germany) at BamHI and HindIII sites. After transformation into E. coli, plasmids were amplified, isolated and the sequences were verified by sequencing. The pSilencer-spp1, pSilencer-mfg8 pSilencer-GM-CSF and pSilencer 2.0-U6 Negative Control (Ambion) vectors were purified with Qiagen Plasmid Maxi Kit and 1.6 μg of each DNA was transfected into cells using 2 μl Lipofectamine-2000 (Invitrogen, UK). One day after transfection, hygromycin B (200 μg/ml) was added. Resistant clones were picked after 2 weeks and analysed for expression of appropriate mRNA by qRT-PCR.
RNA was isolated with RNeasy Mini Kit (Qiagen). First-strand cDNA was synthesized from 2 μg of total RNA (DNase-treated) in a 20 μl reverse transcriptase reaction mixture. […] The expression of Osteopontin, and lactadherin in C6 rat glioma cells and primary astrocytes was evaluated using qPCR. The expression of GM-CSF in GL261 glioma cells and primary astrocytes was evaluated using qPCR. […]
Reaction volume (20 μl) consisted of cDNA equivalent to 50 ng RNA, 1×SYBR Green PCR master mix (Applied Biosystems) and 0.9 μM of each primer. […] Relative quantification of gene expression was determined using the comparative CT method. […]

C6 glioma = C6 glioma implantation into striatum of Wistar rats; assay type: in vivo, rat; conditions: 15 days after implantation, FIG. 19C
Experimental: RNA was isolated from rat C6 glioma clones stably expressing shRNA against osteopontin cells and cDNA was synthesized using reverse-transcriptase and random hexamer primers. Knock down efficiency of osteopontin was confirmed by Real Time PCR (FIG. 19A). C6 glioma cells expressing control shRNA (shNeg) or glioma cells depleted of osteopontin (shSPP1) (5×10^4 cells/2.5 μl of DMEM) were implanted into the right striatum of 8-10 weeks old Wistar rats. 15 days after glioma implantation, the animals were sacrificed and intracardially perfused with 4% paraformaldehyde. The brains were removed, frozen with dry CO^2 and serial 20- or 12-μm-thick coronal sections were collected using a cryostat. To quantify the tumor size, 20 μm-thick sections were stained with toluidine blue, images were acquired using a Leica DM4000B microscope. Tumor areas were measured using ImageJ software in an every fourth brain slice and tumor volumes were calculated according to the Cavalieri principle (Gabrusiewicz et al, 2011). […] Moreover, gliomas from implanted C6-Neg were of similar sizes as WT C6 cells (n=5, 28.33±14.53 mm^3). […] Results are expressed as the means±s.d. from 2 independent experiments (U-Mann-Whitney test).

microglia cells = experiment: qPCR of GCM-induced genes in microglia exposed to GCM of shRNA-expressing C6 glioma cells; assay type: cell-based, rat; conditions: FIG. 7D
Experimental: Total RNA (2 μg) isolated from microglia cultures untreated or treated for 6 h with LPS or G-CM was used as a template to generate cDNA. As endogenous control 18S (Hs99999901_s1) rRNA was applied. Gene expression quantification was performed using the Applied Biosystem TaqMan® The real time amplifications were performed in duplicates in a 20 μl reaction volume containing 2×SYBR PCR MasterMix and a set of primers designed using PRIMER EXPRESS software for the following genes: iNOS, COX-2, II1beta, TNF alpha, MMP-2, MMP-9, MMP-14, Arg1, Id1 and c-Myc. The amount of target mRNA was first normalized to the 18S RNA expression level and then to a control. Data were analysed by the Relative Quantification (^ΔΔCt) method using 7500 System SDS software (Applied Biosystems). The expression of each product was normalized to 18S rRNA and is shown as the ratio of the target gene to 18S gene expression, calculated by 2^−ΔΔCt.
as §1, with “C). Silencing of […] inhibited GCM-induced expression c-Myc and smad7 in microglia cells (FIG. 7B).” for “C).”

EGFP-GL261 glioma cells [2] = experiment: BrdU incorporation of glioma cells expressing shGM-CSF; assay type: cell-based, mouse; conditions: FIG. 10C
EGFP-GL261 glioma = experiment: Intracranial EGFP-GL261 glioma implantation in C57BL/6 mice; assay type: in vivo, mouse
Experimental: Adult C57BL/6 mice (12-16 wk) were anesthetized with an i.p. injection of ketamine (75 mg/kg) and medetomidine (1 mg/kg). EGFP-GL261 glioma cells, shGM-CSF glioma cells or shNeg glioma cells (8×10^4 cells in 1 μl of DMEM) were inoculated in a right striatum using 1-μl syringe with a 26-gauge needle in a stereotactic apparatus according to the coordinates (+1.5 mm AP, −1.5 mL). Mice were resuscitated using i.p. administration of atipamazole and […] Tolfedine 4% (4 mg/kg s.c.). At day 15th after glioma implantation, the animals were anesthetized, sacrificed and perfused with PBS or PBS and 4% paraformaldehyde in PBS. The brains were removed and minced or post-fixed for 24 h in the same fixative solution and placed in 30% sucrose in PBS at 4° C. Next, brains were frozen with dry CO2 and serial 20-μm-thick coronal sections were collected using a cryostat. Images were acquired using a Leica DM4000B microscope.
Tumor areas in coronal sections were measured using Image Pro-Plus software in an every second brain slice and tumor volumes were calculated according to the Cavalieri principle.
Staining with anti-Iba1 and anti-vWF antibodies was performed to detect microglia/macrophages and blood vessels, respectively. Sections were incubated with 0.5% H2O2 in PBS for 30 min at RT, permeabilized and blocked with 10% donkey serum with the addition of 0.3% Triton X-100 in PBS, and then incubated with the primary antibodies: anti-Iba-1 (rabbit, polyclonal, WAKO, 1:1000) or anti-vWF (rabbit, polyclonal, Abcam, 1:1000) for 24 h at 4° C. and with the secondary goat anti-rabbit biotinylated IgG for 2 hr at RT. The primary and secondary antibodies were diluted in PBS containing 0.1% Triton X-100 and 3% donkey serum. The sections were exposed to extravidin-peroxidase complex (1:200) for 1 h at RT and peroxidase activity was visualized with 0.02% 3.3′-diaminobenzidine (DAB) and 0.01% H2O2 in Tris buffer (pH 7.6). Sections were dehydrated and mounted with Histofluid (Sigma, Germany). […]

[3] = test system: EGFP-GL261 glioma cells in murine brain slices; experiment: Tumor invasion in organotypical brain slice cultures; assay type: cell-based, mouse; conditions: 5d after injection; FIGS. 12A and B
Experimental: The organotypical brain slice cultures were obtained from 16-day-old male C57/BL6 mice (animal breeding facility, Schonwalde, Germany). The brain slices cut into 250 μm sections were transferred to a Transwell insert in a 6-well plate (Becton Dickinson, Lincoln Park, N.J., USA) and were incubated in 1 ml of DMEM (Gibco, Gaithersburg, Md., USA) supplemented with 10% FCS (Atlanta Biological, USA), 0.2 mM glutamine and antibiotics. After overnight equilibration, medium was exchanged for the cultivation medium containing 25% FCS, 50 mM sodium bicarbonate, 2% glutamine, 25% Hanks balanced salt solution, 1 μg/ml insulin (all from Gibco, Gaithersburg, Md., USA), 2.46 mg/ml glucose (Braun Melsungen AG, Germany), 0.8 μg/ml vitamin C (Sigma-Aldrich, Germany), 5 mM Tris and antibiotics. Slices were injected with 10,000 GFP-GL261 glioblastoma cells (in 0.5 μl) using a syringe mounted to a micromanipulator. […]
To investigate whether GM-CSF expression influences microglia dependent invasion or directly affects glioma invasion, an organotypic brain slice culture was used as a model. Control or GM-CSF-depleted EGFP-GL261 glioma cells were injected into murine brain slices and resulting tumor size was quantified 5d after injection by measuring the projected fluorescent area covered by the EGFP-glioma cells within the slice. […]

[4] = test system: intracranial GL261 gliomas; experiment: Survival of mice with intracranial gliomas (Kaplan-Meier); assay type: in vivo, mouse
Experimental: Mice were randomly assigned to receive intracranial implantation of shNeg or shRNA glioma cells and observed until becoming moribund. EGFP-GL261 glioma cells, shGM-CSF glioma cells or shNeg glioma cells were inoculated in a right striatum using a syringe with a 26-gauge needle in a stereotactic apparatus according to the coordinates (+1.5 mm AP, −1.5 mL). Mice were resuscitated using i.p. administration of atipamazole and treated with the Tolfedine 4% (4 mg/kg s.c.) analgesic. Kaplan-Meier analysis of mice implanted with shGM-CSF and shNeg glioma cells (n=10 mice per group) was performed.
Two mice having shGM-CSF-gliomas were alive 63 days post implantation.

EGFP-GL261 glioma cells [5] = experiment: MTT metabolism test of glioma cells expressing shGM-CSF; assay type: cell-based, mouse; conditions: FIG. 10D
Source text: To check if glioma-derived GM-CSF is responsible for recruitment of microglia/macrophages to gliomas and for tumor growth, EGFP-GL261 glioma cells stably depleted of GM-CSF were generated by over-expressing plasmids encoding specific shRNA. Silencing of GM-CSF expression at the mRNA level (FIG. 10A) and at the protein level (FIG. 10B) in two independently derived clones was confirmed by qPCR and ELISA. Two clones derived in parallel and expressing negative shRNA served as controls.

Row | Molecule | microglia-dependent invasion of glioma cells through Matrigel (C6 glioma cells) | Silencing efficiency [1] | tumor volume (mean value) (C6 glioma) [mm^3] | reduction in tumor volumes (C6 glioma; vs C6-Neg) [%] | GCM-induced expression arg-1 and smad7 in microglia cells (microglia cells) | proliferation of glioma cells (BrdU incorporation) (EGFP-GL261 glioma cells [2]) | number of microglia/macrophages (anti-Iba-1 staining) (EGFP-GL261 glioma; vs control gliomas (shNeg), FIGS. 11A and B) | formation of tumor vessels (anti-vWF staining) (EGFP-GL261 glioma; vs controls, FIG. 11C) | reduction of tumor size (EGFP-GL261 glioma; vs shNeg glioma cells, day 15, FIG. 11D-E) [%] | average tumor size smaller than controls (fluorescent area) [3] [%] | mice alive 63 days post implantation ([4]; 63 days post implantation) | survival of mice ([4]; n=10 mice per group, FIG. 16) | survival of glioma cells (MTT metabolism) (EGFP-GL261 glioma cells [5])
1 | shSPP1: shRNA specific to rat osteopontin, oligonucleotides SEQ ID NO: 21 and 22, stably expressed in C6 glioma cells (nucleic acid, the letters are possibly those of the target site) chain 1: GATCCAGCTAGTCCTAGACCCTAATTCAAGAGATTAGGGTCTAGGACTAGCTTGTTTTTTGGAAA chain 2: AGCTTTTCCAAAAAACAAGCTAGTCCTAGACCCTAATCTCTTGAATTAGGGTCTAGGACTAGCTG | strongly reduces | approximately 98.5% | 6.03 | 88 | inhibited |  |  |  |  |  |  |  | 
2 | shGM-CSF: shRNA to mouse GM-CSF, oligonucleotides SEQ ID NO: 23 and 24, stably expressed in EGFP-GL261 glioma cells (nucleic acid) chain 1: GATCCCGGAAACGGACTGTGAAACATTCAAGAGATGTTTCACAGTCCGTTTCCGGTTTTTTGGAAA chain 2: AGCTTTTCCAAAAAACCGGAAACGGACTGTGAAACATCTCTTGAATGTTTCACAGTCCGTTTCCGG |  |  |  |  |  | did not affect | reduced number | reduced formation | 65 | 58 | Two | significant survival benefit | did not affect
